# Test results as given in US20020099180A1 (published 2002).
# T1: fibroblast activating protein alpha (FAPα), cell surface-bound on FAP+ cells (FAP over-expressing HT1080 … (human, UniProt Q12884 1-760))
# T1 construct: whole, on cells; Target of the flow cytometry and of the immunohistology; also called cell membrane expressed FAP
# T1 sequence (looked up): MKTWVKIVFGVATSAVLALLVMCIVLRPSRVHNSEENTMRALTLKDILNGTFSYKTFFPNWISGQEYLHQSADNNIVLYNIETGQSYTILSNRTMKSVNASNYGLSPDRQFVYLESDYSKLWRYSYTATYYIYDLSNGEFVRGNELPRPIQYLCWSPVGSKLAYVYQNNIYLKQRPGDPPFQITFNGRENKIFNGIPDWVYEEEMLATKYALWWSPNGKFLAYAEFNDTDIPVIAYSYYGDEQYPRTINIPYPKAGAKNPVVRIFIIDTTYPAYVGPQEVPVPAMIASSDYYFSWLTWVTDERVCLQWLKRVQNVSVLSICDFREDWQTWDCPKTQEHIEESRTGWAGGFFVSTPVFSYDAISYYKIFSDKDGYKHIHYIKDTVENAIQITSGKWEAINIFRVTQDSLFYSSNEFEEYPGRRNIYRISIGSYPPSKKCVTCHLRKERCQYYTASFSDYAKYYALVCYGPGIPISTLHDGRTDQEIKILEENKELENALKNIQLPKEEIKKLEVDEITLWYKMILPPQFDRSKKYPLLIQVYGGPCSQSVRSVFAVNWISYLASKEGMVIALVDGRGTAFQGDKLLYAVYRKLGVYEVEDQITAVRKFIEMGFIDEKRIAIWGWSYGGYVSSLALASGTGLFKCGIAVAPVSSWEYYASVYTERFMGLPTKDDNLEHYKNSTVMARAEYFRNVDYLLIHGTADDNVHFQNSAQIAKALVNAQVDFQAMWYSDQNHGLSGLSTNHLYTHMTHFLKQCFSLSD
# T2: fibroblast activating protein alpha (FAPα), purified and immobilised (ELISA wells) (human, UniProt Q12884 27-760, limits assumed)
# T2 construct: also called purified FAP; immobilized FAP
# T2 sequence (looked up): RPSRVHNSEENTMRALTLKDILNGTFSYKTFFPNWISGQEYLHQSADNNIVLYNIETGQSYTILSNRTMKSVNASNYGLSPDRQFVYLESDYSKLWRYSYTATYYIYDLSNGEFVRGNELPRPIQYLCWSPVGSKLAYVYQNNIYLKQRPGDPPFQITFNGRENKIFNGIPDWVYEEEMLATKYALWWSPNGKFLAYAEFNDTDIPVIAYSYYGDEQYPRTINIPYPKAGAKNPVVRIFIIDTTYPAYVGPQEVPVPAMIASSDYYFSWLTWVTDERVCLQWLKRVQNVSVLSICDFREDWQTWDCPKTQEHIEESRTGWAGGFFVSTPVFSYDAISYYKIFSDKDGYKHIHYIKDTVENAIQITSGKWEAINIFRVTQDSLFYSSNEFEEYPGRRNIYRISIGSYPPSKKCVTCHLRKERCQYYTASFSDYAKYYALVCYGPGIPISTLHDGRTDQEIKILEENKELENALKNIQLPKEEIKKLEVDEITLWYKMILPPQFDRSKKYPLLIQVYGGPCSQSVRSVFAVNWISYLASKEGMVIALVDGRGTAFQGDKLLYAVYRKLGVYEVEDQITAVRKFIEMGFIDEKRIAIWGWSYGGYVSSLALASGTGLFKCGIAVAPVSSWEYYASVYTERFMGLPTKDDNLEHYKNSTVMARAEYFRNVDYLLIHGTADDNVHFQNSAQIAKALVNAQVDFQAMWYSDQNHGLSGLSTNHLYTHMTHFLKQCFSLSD
# Columns and labels:
# [1] = target: T1, fibroblast activating protein alpha …; assay: flow cytometry saturation on FAP expressing HT1080 cells; SC50
# [2] = target: T1, fibroblast activating protein alpha …; assay: binding to FAP+ cells, cell analyser, half maximal saturation
# [3] = target: T2, fibroblast activating protein alpha …; assay: sandwich ELISA, c-myc tag detection; SC50 = concentration of half maximal saturation of binding
# [4] = target: T1, fibroblast activating protein alpha …; assay: flow cytometry saturation on FAP-overexpressing cells; half maximal saturation
Binder,EC50 [1],EC50 [2],EC50 [3],EC50 [4]
"scFv #18 (VH #18, IgG; VL III43; murine HCDR3 F19) (scFv, Humanised monovalent scFv, detected through the c-myc tag with 9E10; also called clone #18; VH18 YOL III43; not shown: c-myc and HIS6 tags (pOPE101), or pIII in the screening ELISA) scFv: QVQLVQSGAELKKPGSSMKVSCKASGDTFSTYSINWVRQAPGQGLEWMGVINPSGGSTSYAQKFQGRVTMTRDTSTSTVYMELSSLRSEDTAVYYCARRRIAYGYDEGHAMDYWGQGTLVTVSSASTKGPKLEEGEFSEARVDIQMTQSPSSLSASTGDRVTITCRASQDISSYLAWYQQAPGKAPHLLMSGATTLQTGVPSRFSGSGSGTDFTLTISSLQAEDVAVYYCQQYYRTPFTFGQGTKLEIKRTVAAPSVFAA",6 nM,~6 nM,–,–
"scFv #50 in minibody format (bivalent) (other, Minibody: bivalent homodimeric scFv derivative; also called scFv #50 (as bivalent in minibody format); not shown: hinge-linker-CH3-cmyc-HIS6 of the minibody) QVQLVESGGGLVQPGGSLRLSCAASGFTFSNYWMSWVRQAPGKGLEWVANIKQDGSEKYYVDSVKGRFTISRDNAKNSLYLQMNSLRAEDTAVYYCARGSLCTDGSCPTIGPGPNWGQGTLVTVSSAPTKAPKLEEGEFSEARVDIQMTQSPSSLSASTGDRVTITCRASQDISSYLAWYQQAPGKAPHLLMSGATTLQTGVPSRFSGSGSGTDFTLTITSLQSEDFATYYCQQYYIYPPTFGQGTRVEIKRTVAAPSVFAA",–,32 nM,–,–
"scFv #13 in minibody format (bivalent) (other, also called scFv #13 (as bivalent in minibody format); scFv #13 (minibody format); not shown: hinge-linker-CH3-cmyc-HIS6 of the minibody) QVQLVESGGTLVQPGGSLRLSCAASGFTFSSYAMSWIRQAPGKGLEWVSGISASGGYIDYADSVKGRVTISRDNSKNMAYLQMSSLRAEDTALYYCAKGGNYQMLLDHWGQGTLVTVSSASTKGPKLEEGEFSEARVDIQMTQSPSSLSASTGDRVTITCRASQDISSYLAWYQQAPGKAPHLLMSGATTLQTGVPSRFSGSGSGTDFTLTITSLQSEDFATYYCQQYYIYPPTFGQGTRVEIKRTVAAPSVFAA",–,8 to 12 nM,–,–
"scFv F19 (parental murine scFv of the monoclonal antibody F19) (scFv, V domains shown) VH: EVQLQQSGPELVKPGASVKMSCKTSRYTFTEYTIHWVRQSHGKSLEWIGGINPNNGIPNYNQKFKGRATLTVGKSSSTAYMELRSLTSEDSAVYFCARRRIAYGYDEGHAMDYWGQGTSVTVSS VL: DIVMSQSPSSLAVSVGEKVTMSCKSSQSLLYSRNQKNYLAWFQQKPGQSPKLLIFWASTRESGVPDRFTGSGFGTDFNLTISSVQAEDLAVYDCQQYFSYPLTFGAGTKLELK",20 nM,–,20 nM,–
"chimeric scFv III43 (murine VH F19 / human VL III43) (scFv, V domains shown) VH: EVQLQQSGPELVKPGASVKMSCKTSRYTFTEYTIHWVRQSHGKSLEWIGGINPNNGIPNYNQKFKGRATLTVGKSSSTAYMELRSLTSEDSAVYFCARRRIAYGYDEGHAMDYWGQGTSVTVSS VL: DIQMTQSPSSLSASTGDRVTITCRASQDISSYLAWYQQAPGKAPHLLMSGATTLQTGVPSRFSGSGSGTDFTLTISSLQAEDVAVYYCQQYYRTPFTFGQGTKLEIKR",–,–,20 nM,–
"scFv #34 (VH #34, IgG; VL III43; murine HCDR3 F19) (scFv, Humanised monovalent scFv, detected through the c-myc tag with 9E10; also called clone #34; VH34YOL III43; not shown: c-myc and HIS6 tags (pOPE101), or pIII in the screening ELISA) scFv: QVQLQQSGAEVKKPGSSVKVSCKASGGTFSTHTINWVRQAPGQGLEWMGGIAPMFGTANYAQKFQGRVTITADKSTSTAYMEMSSLRSDDTAVYYCARRRIAYGYDEGHAMDYWGQGTLVTVSSASTKGPKLEEGEFSEARVDIQMTQSPSSLSASTGDRVTITCRASQDISSYLAWYQQAPGKAPHLLMSGATTLQTGVPSRFSGSGSGTDFTLTISSLQAEDVAVYYCQQYYRTPFTFGQGTKLEIKRTVAAPSVFAA",6 nM,~6 nM,–,–
"Mb #34 (minibody of scFv #34) (other, also called scFv #34-minibody; not shown: hinge-linker-CH3-cmyc-HIS6 of the minibody) QVQLQQSGAEVKKPGSSVKVSCKASGGTFSTHTINWVRQAPGQGLEWMGGIAPMFGTANYAQKFQGRVTITADKSTSTAYMEMSSLRSDDTAVYYCARRRIAYGYDEGHAMDYWGQGTLVTVSSASTKGPKLEEGEFSEARVDIQMTQSPSSLSASTGDRVTITCRASQDISSYLAWYQQAPGKAPHLLMSGATTLQTGVPSRFSGSGSGTDFTLTISSLQAEDVAVYYCQQYYRTPFTFGQGTKLEIKRTVAAPSVFAA",–,–,–,2 nM
